Experiments:
Format in all cases: binding
[1] = Probe fluorescence ratio response to palmitoleate:BSA complex, relative to ADIFAB2 (ΔR/ΔRAD2); conditions: fluorescence response (R-Ro) relative to ADIFAB2
[2] = Probe fluorescence ratio response to oleate:BSA complex, relative to ADIFAB2 (ΔR/ΔRAD2); conditions: fluorescence response (R-Ro) relative to ADIFAB2; oleate
Method in brief: (§1)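 Mutant probes were screened against fatty acid:BSA complexes made by adding fatty acid sodium salts at pH 11 to BSA in HEPES, titrated until ADIFAB2 gave ΔR ≈0.4 ([FFAu] 100–1000 nM). Wells held 6 μM BSA; excitation 375 nm, emission 550/457 nm, background-subtracted.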

[3] = Probe fluorescence ratio response to stearate:BSA complex, relative to ADIFAB2 (ΔR/ΔRAD2); conditions: fluorescence response (R-Ro) relative to ADIFAB2
[4] = Probe fluorescence ratio response to linoleate:BSA complex, relative to ADIFAB2 (ΔR/ΔRAD2); conditions: fluorescence response (R-Ro) relative to ADIFAB2; linoleate
Method in brief: as §1

[5] = Probe fluorescence ratio response to palmitate:BSA complex, relative to ADIFAB2 (ΔR/ΔRAD2); conditions: fluorescence response (R-Ro) relative to ADIFAB2; palmitate
Method in brief: as §1

[6] = Probe fluorescence ratio response to linolenate:BSA complex, relative to ADIFAB2 (ΔR/ΔRAD2); conditions: fluorescence response (R-Ro) relative to ADIFAB2; linolenate
Method in brief: as §1

[7] = Probe fluorescence ratio response to arachidonate:BSA complex, relative to ADIFAB2 (ΔR/ΔRAD2); conditions: fluorescence response (R-Ro) relative to ADIFAB2; arachidonate
Method in brief: as §1

B1: L2P23G7: acrylodan-labeled rI-FABP-L72A mutein: M18 V, G31 F, F55 L, A73 WT (protein, UniProt P02693 2-132, looked up, variant M18V G31F F55L L72A)
Fatty acid-binding protein, …: AFDGTWKVDRNENYEKFVEKMGINVVKRKLFAHDNLKLTITQEGNKFTVKESSNLRNIDVVFELGVDFAYSAADGTELTGTWTMEGNKLVGKFKRVDNGKELIAVREISGNELIQTYTYEGVEAKRIFKKE
modifications: acrylodan label
notes: acrylodan-labeled rI-FABP-L72A mutein: M18 V, G31 F, F55 L, A73 WT
ΔR/ΔRAD2 POA [1]: 1.4 | ΔR/ΔRAD2 OA [2]: 0.6 | ΔR/ΔRAD2 SA [3]: 0.4 | ΔR/ΔRAD2 LA [4]: 1.0 | ΔR/ΔRAD2 PA [5]: 1.0 | ΔR/ΔRAD2 LNA [6]: 1.2 | ΔR/ΔRAD2 AA [7]: 0.9

B2: L2P12C5: acrylodan-labeled rI-FABP-L72A mutein: M18 I, G31 I, F55 M, A73 I (protein, UniProt P02693 2-132, looked up, variant M18I G31I F55M L72A A73I)
Fatty acid-binding protein, …: AFDGTWKVDRNENYEKFIEKMGINVVKRKLIAHDNLKLTITQEGNKFTVKESSNMRNIDVVFELGVDFAYSAIDGTELTGTWTMEGNKLVGKFKRVDNGKELIAVREISGNELIQTYTYEGVEAKRIFKKE
modifications: acrylodan label
ΔR/ΔRAD2 POA [1]: 1.9 | ΔR/ΔRAD2 OA [2]: 0.8 | ΔR/ΔRAD2 SA [3]: 0.4 | ΔR/ΔRAD2 LA [4]: 1.5 | ΔR/ΔRAD2 PA [5]: 1.5 | ΔR/ΔRAD2 LNA [6]: 1.7 | ΔR/ΔRAD2 AA [7]: 1.3

B3: L2P11B4: acrylodan-labeled rI-FABP-L72A mutein: M18 V, G31 A, F55 WT, A73 W (protein, UniProt P02693 2-132, looked up, variant M18V G31A L72A A73W)
Fatty acid-binding protein, …: AFDGTWKVDRNENYEKFVEKMGINVVKRKLAAHDNLKLTITQEGNKFTVKESSNFRNIDVVFELGVDFAYSAWDGTELTGTWTMEGNKLVGKFKRVDNGKELIAVREISGNELIQTYTYEGVEAKRIFKKE
modifications: acrylodan label
notes: acrylodan-labeled rI-FABP-L72A mutein: M18 V, G31 A, F55 WT, A73 W
ΔR/ΔRAD2 POA [1]: 3.1 | ΔR/ΔRAD2 OA [2]: 1.9 | ΔR/ΔRAD2 SA [3]: 0.7 | ΔR/ΔRAD2 LA [4]: 2.6 | ΔR/ΔRAD2 PA [5]: 2.2 | ΔR/ΔRAD2 LNA [6]: 2.8 | ΔR/ΔRAD2 AA [7]: 1.8

B4: L2P22E6: acrylodan-labeled rI-FABP-L72A mutein: M18 V, G31 A, F55 I, A73 W (protein, UniProt P02693 2-132, looked up, variant M18V G31A F55I L72A A73W)
Fatty acid-binding protein, …: AFDGTWKVDRNENYEKFVEKMGINVVKRKLAAHDNLKLTITQEGNKFTVKESSNIRNIDVVFELGVDFAYSAWDGTELTGTWTMEGNKLVGKFKRVDNGKELIAVREISGNELIQTYTYEGVEAKRIFKKE
modifications: acrylodan label
notes: acrylodan-labeled rI-FABP-L72A mutein: M18 V, G31 A, F55 I, A73 W
ΔR/ΔRAD2 POA [1]: 1.6 | ΔR/ΔRAD2 OA [2]: 0.8 | ΔR/ΔRAD2 SA [3]: 0.4 | ΔR/ΔRAD2 LA [4]: 1.3 | ΔR/ΔRAD2 PA [5]: 1.3 | ΔR/ΔRAD2 LNA [6]: 1.6 | ΔR/ΔRAD2 AA [7]: 1.0

B5: L2P8A6: acrylodan-labeled rI-FABP-L72A mutein: M18 I, G31 V, F55 V, A73 V (protein, UniProt P02693 2-132, looked up, variant M18I G31V F55V L72A A73V)
Fatty acid-binding protein, …: AFDGTWKVDRNENYEKFIEKMGINVVKRKLVAHDNLKLTITQEGNKFTVKESSNVRNIDVVFELGVDFAYSAVDGTELTGTWTMEGNKLVGKFKRVDNGKELIAVREISGNELIQTYTYEGVEAKRIFKKE
modifications: acrylodan label
ΔR/ΔRAD2 POA [1]: 1.3 | ΔR/ΔRAD2 OA [2]: 0.4 | ΔR/ΔRAD2 SA [3]: 0.2 | ΔR/ΔRAD2 LA [4]: 0.8 | ΔR/ΔRAD2 PA [5]: 1.0 | ΔR/ΔRAD2 LNA [6]: 1.2 | ΔR/ΔRAD2 AA [7]: 0.6

B6: L2P17H10: acrylodan-labeled rI-FABP-L72A mutein: M18 G, G31 F, F55 WT, A73 L (protein, UniProt P02693 2-132, looked up, variant M18G G31F L72A A73L)
Fatty acid-binding protein, …: AFDGTWKVDRNENYEKFGEKMGINVVKRKLFAHDNLKLTITQEGNKFTVKESSNFRNIDVVFELGVDFAYSALDGTELTGTWTMEGNKLVGKFKRVDNGKELIAVREISGNELIQTYTYEGVEAKRIFKKE
modifications: acrylodan label
notes: acrylodan-labeled rI-FABP-L72A mutein: M18 G, G31 F, F55 WT, A73 L
ΔR/ΔRAD2 POA [1]: 1.2 | ΔR/ΔRAD2 OA [2]: 1.4 | ΔR/ΔRAD2 SA [3]: 1.7 | ΔR/ΔRAD2 LA [4]: 1.5 | ΔR/ΔRAD2 PA [5]: 1.0 | ΔR/ΔRAD2 LNA [6]: 1.2 | ΔR/ΔRAD2 AA [7]: 1.8

B7: L2P18H12: acrylodan-labeled rI-FABP-L72A mutein: M18 I, G31 V, F55 WT, A73 G (protein, UniProt P02693 2-132, looked up, variant M18I G31V L72A A73G)
Fatty acid-binding protein, …: AFDGTWKVDRNENYEKFIEKMGINVVKRKLVAHDNLKLTITQEGNKFTVKESSNFRNIDVVFELGVDFAYSAGDGTELTGTWTMEGNKLVGKFKRVDNGKELIAVREISGNELIQTYTYEGVEAKRIFKKE
modifications: acrylodan label
notes: acrylodan-labeled rI-FABP-L72A mutein: M18 I, G31 V, F55 WT, A73 G
ΔR/ΔRAD2 POA [1]: 2.1 | ΔR/ΔRAD2 OA [2]: 1.0 | ΔR/ΔRAD2 SA [3]: 0.5 | ΔR/ΔRAD2 LA [4]: 1.7 | ΔR/ΔRAD2 PA [5]: 1.6 | ΔR/ΔRAD2 LNA [6]: 1.9 | ΔR/ΔRAD2 AA [7]: 1.3

B8: L2P2E11: acrylodan-labeled rI-FABP-L72A mutein: M18 I, G31 F, F55 WT, A73 WT (protein, UniProt P02693 2-132, looked up, variant M18I G31F L72A)
Fatty acid-binding protein, …: AFDGTWKVDRNENYEKFIEKMGINVVKRKLFAHDNLKLTITQEGNKFTVKESSNFRNIDVVFELGVDFAYSAADGTELTGTWTMEGNKLVGKFKRVDNGKELIAVREISGNELIQTYTYEGVEAKRIFKKE
modifications: acrylodan label
ΔR/ΔRAD2 POA [1]: 2.6 | ΔR/ΔRAD2 OA [2]: 1.6 | ΔR/ΔRAD2 SA [3]: 0.8 | ΔR/ΔRAD2 LA [4]: 2.5 | ΔR/ΔRAD2 PA [5]: 2.0 | ΔR/ΔRAD2 LNA [6]: 2.8 | ΔR/ΔRAD2 AA [7]: 1.9

B9: L2P8A5: acrylodan-labeled rI-FABP-L72A mutein: M18 V, G31 A, F55 W, A73 W (protein, UniProt P02693 2-132, looked up, variant M18V G31A F55W L72A A73W)
Fatty acid-binding protein, …: AFDGTWKVDRNENYEKFVEKMGINVVKRKLAAHDNLKLTITQEGNKFTVKESSNWRNIDVVFELGVDFAYSAWDGTELTGTWTMEGNKLVGKFKRVDNGKELIAVREISGNELIQTYTYEGVEAKRIFKKE
modifications: acrylodan label
ΔR/ΔRAD2 POA [1]: 2.0 | ΔR/ΔRAD2 OA [2]: 0.9 | ΔR/ΔRAD2 SA [3]: 0.4 | ΔR/ΔRAD2 LA [4]: 1.6 | ΔR/ΔRAD2 PA [5]: 1.5 | ΔR/ΔRAD2 LNA [6]: 1.9 | ΔR/ΔRAD2 AA [7]: 1.1

B10: L2P4C5: acrylodan-labeled rI-FABP-L72A mutein: M18 I, G31 Y, F55 WT, A73 WT (protein, UniProt P02693 2-132, looked up, variant M18I G31Y L72A)
Fatty acid-binding protein, …: AFDGTWKVDRNENYEKFIEKMGINVVKRKLYAHDNLKLTITQEGNKFTVKESSNFRNIDVVFELGVDFAYSAADGTELTGTWTMEGNKLVGKFKRVDNGKELIAVREISGNELIQTYTYEGVEAKRIFKKE
modifications: acrylodan label
ΔR/ΔRAD2 POA [1]: 2.6 | ΔR/ΔRAD2 OA [2]: 2.1 | ΔR/ΔRAD2 SA [3]: 1.0 | ΔR/ΔRAD2 LA [4]: 2.8 | ΔR/ΔRAD2 PA [5]: 1.8 | ΔR/ΔRAD2 LNA [6]: 2.8 | ΔR/ΔRAD2 AA [7]: 2.2

B11: L2P22G6: acrylodan-labeled rI-FABP-L72A mutein: M18 I, G31 Y, F55 WT, A73 G (protein, UniProt P02693 2-132, looked up, variant M18I G31Y L72A A73G)
Fatty acid-binding protein, …: AFDGTWKVDRNENYEKFIEKMGINVVKRKLYAHDNLKLTITQEGNKFTVKESSNFRNIDVVFELGVDFAYSAGDGTELTGTWTMEGNKLVGKFKRVDNGKELIAVREISGNELIQTYTYEGVEAKRIFKKE
modifications: acrylodan label
notes: acrylodan-labeled rI-FABP-L72A mutein: M18 I, G31 Y, F55 WT, A73 G
ΔR/ΔRAD2 POA [1]: 2.6 | ΔR/ΔRAD2 OA [2]: 1.6 | ΔR/ΔRAD2 SA [3]: 0.9 | ΔR/ΔRAD2 LA [4]: 2.6 | ΔR/ΔRAD2 PA [5]: 1.9 | ΔR/ΔRAD2 LNA [6]: 2.7 | ΔR/ΔRAD2 AA [7]: 1.8

B12: L2P23A4: acrylodan-labeled rI-FABP-L72A mutein: M18 V, G31 I, F55 L, A73 V (protein, UniProt P02693 2-132, looked up, variant M18V G31I F55L L72A A73V)
Fatty acid-binding protein, …: AFDGTWKVDRNENYEKFVEKMGINVVKRKLIAHDNLKLTITQEGNKFTVKESSNLRNIDVVFELGVDFAYSAVDGTELTGTWTMEGNKLVGKFKRVDNGKELIAVREISGNELIQTYTYEGVEAKRIFKKE
modifications: acrylodan label
ΔR/ΔRAD2 POA [1]: 2.8 | ΔR/ΔRAD2 OA [2]: 2.3 | ΔR/ΔRAD2 SA [3]: 1.2 | ΔR/ΔRAD2 LA [4]: 3.1 | ΔR/ΔRAD2 PA [5]: 1.9 | ΔR/ΔRAD2 LNA [6]: 2.6 | ΔR/ΔRAD2 AA [7]: 2.8

Source: US20050244864A1, “Development and use of fluorescent probes of unbound analytes” (priority 2004, published 2005)
